According to article PMC314469, “Protein Interaction Networks by Proteome Peptide Scanning” (PLoS Biology, 2004):

T1: amphyphisin SH3 (AMPH_HUMAN), P49418
T1 chain: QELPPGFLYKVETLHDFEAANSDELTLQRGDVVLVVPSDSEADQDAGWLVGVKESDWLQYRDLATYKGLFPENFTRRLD

B1: Q96M18 45-58 (peptide)
chain: RLIAPRRPWTLSHV
B2: O75467 160-174 (peptide)
chain: RLTSPLRPPEGVRL
B3: Q9BW08 289-303 (peptide)
chain: RKPKPERPPSSSSS
B4: Q92657 54-67 (peptide)
chain: RHQRLHRPGRPVPG
B5: P48634 419-433 (peptide)
chain: RGGPPSKPPAPEDE
B6: P13674 520-533 (peptide)
chain: RGQEFRRPSTLSEL
B7: Q07075 143-156 (peptide)
chain: RLPELKRPSGDQVQ
B8: Q96JB4 119-132 (peptide)
chain: RHLILKRPGFQEHE
B9: O43561 47-60 (peptide)
chain: RGIQFKRPHTVAPW
B10: Q9NTH0 93-106 (peptide)
chain: RHLAPNRPSKSRTD
B11: Q99759 56-69 (peptide)
chain: RIIAFSRPVKYEDV
B12: Q9UL53 87-100 (peptide)
chain: RLFSIVRPRRLLYM
B13: Q96JG1 528-542 (peptide)
chain: RHASPARPPAARSQ
B14: Q01650 421-434 (peptide)
chain: RKPELERPIKVNLA
B15: P51659 480-494 (peptide)
chain: AVAIPNRPPDAVLT
B16: Q96SQ5 2-15 (peptide)
chain: AAAVPRRPTQQGTV
B17: Q9NWH6 590-603 (peptide)
chain: RHWRPWRPDKTKKQ
B18: Q9NRN8 254-267 (peptide)
chain: RKWYPLRPKKINLD
B19: Q9BXL7 634-647 (peptide)
chain: RKFSLERPFRPSVT
B20: Q9BQU6 64-78 (peptide)
chain: RLAGPPRPPGHPRE
B21: O15235 37-51 (peptide)
chain: RLGPPKRPPRKLGP
B22: Q9NT23 226-239 (peptide)
chain: RLHRLRRPHSSSDA
B23: Q9H7T3 112-125 (peptide)
chain: RHPRPRRPGGPALR
B24: P58012 147-161 (peptide)
chain: RMKRPFRPPPAHFQ
B25: O00407 179-192 (peptide)
chain: RLNWLGRPSKVLSL
B26: P31629 1496-1509 (peptide)
chain: RHLSPRRPVSPGKD
B27: Q14296 184-198 (peptide)
chain: RLRLPPKPPPPLQP
B28: Q9NRC6 2111-2124 (peptide)
chain: RLKTLRRPRVRDRL
B29: Q9UJS3 337-350 (peptide)
chain: RLLPPQRPGKSQRV
B30: Q92769 50-63 (peptide)
chain: RKMEIYRPHKATAE
B31: O15350 435-448 (peptide)
chain: ATPLPRRPQPRQFF
B32: Q9H1C0 128-141 (peptide)
chain: RLRHLRRPRVARLL
B33: AAH27972 515-529 (peptide)
chain: AVAPPARPPRPPYP
B34: Q9Y2U5 55-68 (peptide)
chain: RILQFPRPVKLEDL
B35: Q13547 49-62 (peptide)
chain: RKMEIYRPHKANAE
B36: O94839 5-18 (peptide)
chain: AVAVPRRPRAGAER
B37: P58180 122-135 (peptide)
chain: RLIAISRPLRYVTV
B38: Q9HCU4 2874-2888 (peptide)
chain: RGGPPPRPPPRQSL
B39: Q96RT6 725-739 (peptide)
chain: RGFLPYRPPRPAFF
B40: Q9UFC0 277-290 (peptide)
chain: RLAALKRPDDVPLS
B41: P55001 106-119 (peptide)
chain: RLYSIHRPSKQSLN
B42: P41215 45-59 (peptide)
chain: RHPKPLKPPWHLSM

What was measured:
[1] = molecular target: T1, amphyphisin SH3 (AMPH_HUMAN), P49418; experiment: SPOT array
[2] = molecular target: endophilin SH3 (SH3G2_HUMAN), Q99962; experiment: SPOT array

Row | Binder | normalised SPOT signal, Boehringer light units (BLU); mean over the file's lines of this peptide [1] | normalised SPOT signal, Boehringer light units (BLU); mean over the file's lines of this peptide [2]
1 | B1 | 1130 | 2240
2 | B2 | 235 | 1040
3 | B3 | 66.8 | 7630
4 | B4 | 11.8 | 64.3
5 | B5 | 38.6 | 33.5
6 | B6 | 38.7 | 158
7 | B7 | 37.2 | 34.9
8 | B8 | 67.7 | 128
9 | B9 | 35.2 | 28.6
10 | B10 | 530 | 257
11 | B11 | 113 | 79.6
12 | B12 | 1390 | 702
13 | B13 | 434 | 4680
14 | B14 | 103 | 123
15 | B15 | 49.8 | 79.1
16 | B16 | 38.9 | 182
17 | B17 | 580 | 568
18 | B18 | 177 | 204
19 | B19 | 797 | 105
20 | B20 | 162 | 2700
21 | B21 | 17100 | 10500

Row | Binder | normalised SPOT signal, Boehringer light units (BLU); mean over the file's lines of this peptide [1] | normalised SPOT signal, Boehringer light units (BLU); mean over the file's lines of this peptide [2]
22 | B22 | 12.5 | 9.6
23 | B23 | 92.1 | 266
24 | B24 | 554 | 5130
25 | B25 | 213 | 270
26 | B26 | 60.1 | 332
27 | B27 | 896 | 6030
28 | B28 | 35.2 | 32.1
29 | B29 | 2730 | 25000
30 | B30 | 16.3 | 179
31 | B31 | 151 | 19900
32 | B32 | 15.2 | 24.3
33 | B33 | 4180 | 9580
34 | B34 | 108 | 119
35 | B35 | 90.1 | 78.7
36 | B36 | 106 | 256
37 | B37 | 4460 | 658
38 | B38 | 17900 | 17200
39 | B39 | 7280 | 13700
40 | B40 | 38 | 49.2
41 | B41 | 37.2 | 290
42 | B42 | 76.6 | 3220
